B1: NLV2 TCR alpha chain (CDR3α only) (parent)
chain: AGPMKTSYDKVI

Variants of: B1
Experiment: T-Switch: Jurkat TCRβ−/− cells expressing a CDR3 saturation-mutagenesis library, stained with two peptide-HLA-A*02:01 tetramers (original and novel peptide) plus anti-CD3, FACS-sorted into four gates, gDNA sequenced
Conditions: tetramers 1 µg/mL, 30 min on ice, SP, DP and SW gates expanded about 10 days between rounds ('two to three rounds of selection' in the Methods), unresolved parent, parent is a CDR3 fragment, scale: fold enrichment, numbering: sequential-on-construct, sequence starts at 1
[1] = with both tetramers (double-negative gate, binds neither): HLA-A*02:01 with … and with …, gate DN: OPPOSITE: higher = more of the variant in the gate that binds neither peptide = LESS binding (or no expression; inferred). Fold enrichment of the CDR3 variant in one FACS gate of a two-tetram
[2] = with both tetramers (double-positive gate): HLA-A*02:01 with … and with …, gate DP: higher = more of the variant in the gate that binds both peptides. Fold enrichment of the CDR3 variant in one FACS gate of a two-tetramer stain. SP/DP/SW gates were expanded and re-sorted bef

Variant	enrichment [1]	enrichment [2]
[…] (CDR3 as printed); G2F derived by comparing it with the table's wild-type CDR3 AGPMKTSYDKVI	0.804	0
[…] (CDR3 as printed); K10Y derived by comparing it with the table's wild-type CDR3 AGPMKTSYDKVI	0.393	0
[…] (CDR3 as printed); G2W derived by comparing it with the table's wild-type CDR3 AGPMKTSYDKVI	1.05	0
[…] (CDR3 as printed); P3G derived by comparing it with the table's wild-type CDR3 AGPMKTSYDKVI	1	0
[…] (CDR3 as printed); T6G derived by comparing it with the table's wild-type CDR3 AGPMKTSYDKVI	1.02	0
[…] (CDR3 as printed); Y8M derived by comparing it with the table's wild-type CDR3 AGPMKTSYDKVI	1.1	0
[…] (CDR3 as printed); D9L derived by comparing it with the table's wild-type CDR3 AGPMKTSYDKVI	0.93	0
[…] (CDR3 as printed); V11S derived by comparing it with the table's wild-type CDR3 AGPMKTSYDKVI	1.15	0
[…] (CDR3 as printed); D9E derived by comparing it with the table's wild-type CDR3 AGPMKTSYDKVI	1.03	0
[…] (CDR3 as printed); M4K derived by comparing it with the table's wild-type CDR3 AGPMKTSYDKVI	0.454	0
[…] (CDR3 as printed); V11P derived by comparing it with the table's wild-type CDR3 AGPMKTSYDKVI	0.923	0
[…] (CDR3 as printed); M4Q derived by comparing it with the table's wild-type CDR3 AGPMKTSYDKVI	0.551	0
[…] (CDR3 as printed); G2H derived by comparing it with the table's wild-type CDR3 AGPMKTSYDKVI	0.822	0
[…] (CDR3 as printed); V11M derived by comparing it with the table's wild-type CDR3 AGPMKTSYDKVI	1.2	0
[…] (CDR3 as printed); P3M derived by comparing it with the table's wild-type CDR3 AGPMKTSYDKVI	1.17	0
[…] (CDR3 as printed); K5E derived by comparing it with the table's wild-type CDR3 AGPMKTSYDKVI	0.392	0
[…] (CDR3 as printed); A1D derived by comparing it with the table's wild-type CDR3 AGPMKTSYDKVI	0.746	0
[…] (CDR3 as printed); K5Y derived by comparing it with the table's wild-type CDR3 AGPMKTSYDKVI	0.737	0
[…] (CDR3 as printed); I12R derived by comparing it with the table's wild-type CDR3 AGPMKTSYDKVI	1.1	0

Variant	enrichment [1]	enrichment [2]
[…] (CDR3 as printed); A1F derived by comparing it with the table's wild-type CDR3 AGPMKTSYDKVI	0.884	0
[…] (CDR3 as printed); V11R derived by comparing it with the table's wild-type CDR3 AGPMKTSYDKVI	1.26	0
[…] (CDR3 as printed); A1L derived by comparing it with the table's wild-type CDR3 AGPMKTSYDKVI	0.94	0
[…] (CDR3 as printed); M4H derived by comparing it with the table's wild-type CDR3 AGPMKTSYDKVI	0.903	0
[…] (CDR3 as printed); Y8W derived by comparing it with the table's wild-type CDR3 AGPMKTSYDKVI	1.01	0
[…] (CDR3 as printed); D9W derived by comparing it with the table's wild-type CDR3 AGPMKTSYDKVI	1.34	0
[…] (CDR3 as printed); T6R derived by comparing it with the table's wild-type CDR3 AGPMKTSYDKVI	0.792	0
[…] (CDR3 as printed); A1I derived by comparing it with the table's wild-type CDR3 AGPMKTSYDKVI	0.798	0
[…] (CDR3 as printed); S7F derived by comparing it with the table's wild-type CDR3 AGPMKTSYDKVI	1.22	0
[…] (CDR3 as printed); A1H derived by comparing it with the table's wild-type CDR3 AGPMKTSYDKVI	0.735	0
[…] (CDR3 as printed); P3L derived by comparing it with the table's wild-type CDR3 AGPMKTSYDKVI	1.13	0
[…] (CDR3 as printed); T6F derived by comparing it with the table's wild-type CDR3 AGPMKTSYDKVI	1.26	0
[…] (CDR3 as printed); Y8C derived by comparing it with the table's wild-type CDR3 AGPMKTSYDKVI	1.27	0
[…] (CDR3 as printed); K5Q derived by comparing it with the table's wild-type CDR3 AGPMKTSYDKVI	0.51	0
[…] (CDR3 as printed); V11L derived by comparing it with the table's wild-type CDR3 AGPMKTSYDKVI	0.656	0
[…] (CDR3 as printed); K5I derived by comparing it with the table's wild-type CDR3 AGPMKTSYDKVI	1.56	0
[…] (CDR3 as printed); V11W derived by comparing it with the table's wild-type CDR3 AGPMKTSYDKVI	0.939	0
[…] (CDR3 as printed); M4C derived by comparing it with the table's wild-type CDR3 AGPMKTSYDKVI	0.681	0
[…] (CDR3 as printed); G2P derived by comparing it with the table's wild-type CDR3 AGPMKTSYDKVI	0.883	0

Variant	enrichment [1]	enrichment [2]
[…] (CDR3 as printed); S7A derived by comparing it with the table's wild-type CDR3 AGPMKTSYDKVI	0.945	0
[…] (CDR3 as printed); Y8L derived by comparing it with the table's wild-type CDR3 AGPMKTSYDKVI	1	0
[…] (CDR3 as printed); D9Y derived by comparing it with the table's wild-type CDR3 AGPMKTSYDKVI	1.09	0
[…] (CDR3 as printed); M4G derived by comparing it with the table's wild-type CDR3 AGPMKTSYDKVI	0.783	0
[…] (CDR3 as printed); A1N derived by comparing it with the table's wild-type CDR3 AGPMKTSYDKVI	0.847	0
[…] (CDR3 as printed); P3T derived by comparing it with the table's wild-type CDR3 AGPMKTSYDKVI	0.962	0
[…] (CDR3 as printed); I12G derived by comparing it with the table's wild-type CDR3 AGPMKTSYDKVI	1.06	0
[…] (CDR3 as printed); S7T derived by comparing it with the table's wild-type CDR3 AGPMKTSYDKVI	0.968	0
[…] (CDR3 as printed); A1S derived by comparing it with the table's wild-type CDR3 AGPMKTSYDKVI	0.736	0
[…] (CDR3 as printed); K5M derived by comparing it with the table's wild-type CDR3 AGPMKTSYDKVI	0.901	0
[…] (CDR3 as printed); K10M derived by comparing it with the table's wild-type CDR3 AGPMKTSYDKVI	1.08	0
[…] (CDR3 as printed); D9N derived by comparing it with the table's wild-type CDR3 AGPMKTSYDKVI	1.01	0
[…] (CDR3 as printed); I12C derived by comparing it with the table's wild-type CDR3 AGPMKTSYDKVI	1.05	0
[…] (CDR3 as printed); Y8H derived by comparing it with the table's wild-type CDR3 AGPMKTSYDKVI	0.969	0
[…] (CDR3 as printed); K10P derived by comparing it with the table's wild-type CDR3 AGPMKTSYDKVI	0.876	0
[…] (CDR3 as printed); K10D derived by comparing it with the table's wild-type CDR3 AGPMKTSYDKVI	0.842	0
[…] (CDR3 as printed); P3Y derived by comparing it with the table's wild-type CDR3 AGPMKTSYDKVI	1.08	0
[…] (CDR3 as printed); G2K derived by comparing it with the table's wild-type CDR3 AGPMKTSYDKVI	0.928	0
[…] (CDR3 as printed); K10G derived by comparing it with the table's wild-type CDR3 AGPMKTSYDKVI	1	0

— paper PMC13397619
